From the supplement of paper PMC9170038

Tested on: MS2 coat protein
Assay: apparent KD of MS2 coat protein; higher = weaker reporter binding
Conditions: Eterna round: R107
How it was run: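 Designed RNA switches, transcribed on-chip from Illumina sequencing clusters, were titrated with SNAP-549-labelled MS2 coat protein from 0.7 or 1.5 nM to 3 µM in twofold steps. The solution was 100 mM Tris-HCl pH 7.5, 80 mM KCl, 4 mM MgCl2, with constant ligand or without it. Apparent KD is the median over each design's normalised cluster binding-curve fits.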

[1] = input ligand: theophylline 20 uM
[2] = input ligand: theophylline 2 mM
[3] = input ligand: tryptophan 2.4 mM

Sequence	apparent KD of MS2 coat protein (input ligand: arginine 13.2 mM) [nM]	apparent KD of MS2 coat protein [1] [nM]	apparent KD of MS2 coat protein [2] [nM]	apparent KD of MS2 coat protein [3] [nM]	apparent KD of MS2 coat protein (input ligand: none) [nM]
CUGCCUGCCUCACAUGAGGAUCACCCAUGUCGAGGACCGGUACGGCCGCCACUCGUCGUCGGUAAUACAGGCAUUGAAUAAUAUA [Esgeusla]	9.88	14.5	11.9	–	–
UGAUCCUACAGAGAUACCAGUGCCGCUAGAUAACUAUGCACAUGAGGAUCACCCAUGUAACACCCUUGGCAGCUCAACUAAAGGG [Same State Theophylline B GF20]	42.5	127	–	79.7	–
GUUGUAUACUCGGCCGCCACUGAGAGAGUCAUGUAAACAUGAGGAUCACCCAUGUAAUAUAUAUACAGGACCGGGAGUAUGGUAA [4.F]	12.1	16.2	15.4	–	–
AACACGGUGAUGGUAGCCGGACGCUAGGUACGAGGACCGGUACGGCCGCCACUCGAAGUCCUACGACAUGAGGAUCACCCAUGUA [Same State Trp A GF14]	46.2	89.2	81.7	47.7	64.3
CAAGAACAGCCGAAUCUCGGCAGCUGAGAAGGAGCGCGAGAAGUCGCAGGUAGGUCGCUCAGGAAUACAUGAGGAUCACCCAUGU [Usaronen]	32.4	45.9	46.8	27.9	28.4
UUCAGCUAGUCGGCCGCCACUGCUUGAGGAUCACCCAAGUAGGUCCACACUGCUUCGGCAGUGAGUAGGACCGGGACUAGCUGAG	10.9	14.4	10.1	25.8	10.1
GACUCUGUCGGAAGGAGCGCAGAGCCGGUCUUCUACAUGAGGAUCACCCAUGUGCUGGUUAUGCAGGUAGGUCGCCGACGCGUGG [Ismatiza]	17	40.2	27.2	24.6	27.1
AACGAUUAAUCGGCCGCCACUCACAUGAGGAUCACCCAUGUUGUUCUUCCAGGUGGUUCUGUUCCGAGGACCGGGAUUCCGUCCU [theeternabot_exclusion_MS2_Trp_B_42]	41.8	70.6	70.7	–	–
GAGCUGAUGUAGAGUGGAUAUCCUUGAGAUACCAGUACAGAAAUGUACCCUUGGCAGCUCUUCUUUACAUGAGGAUCACCCAUGU [Ex Theophylline A 24]	12.8	14.3	–	12.5	–
UGAUAUAUGCGAAGGAGCGGGAAAUAUAUAUAUAUAAUCCUAACAUGAGGAUCACCCAUGUCCCAGGUAGGUCGCGCAUAUAUUG [12.D]	58.7	78.5	77.1	59.7	64.8
UCACAUGAGGAUCACCCAUGUGUCAGAGAAGGAGCGGCCGCAAGGCCAGGUAGGUCGCUCGGGUAGCGUGAGGAUCACCCGUGUG [#1 Exclusion - Arginine A Attempt #11 (Inspired by cyborg)]	31.8	175	77.5	45.1	65.8
AAAUAAAUACAUGAGGAUCACCCAUGUGAAGGAGCGCGCGUUAGCGCAGGUAGGUCGCACAUGAAAGGGAAGCGAAAGAAAUAAU [MAT - Exclusion Arginine A - Mod of Eli - D16]	24.9	28.6	24.3	22.2	19
GGCUGUUGCGAUUUGAAGCGGCAGCGUGAUACCAGAUGUAAGAGCGUCCCUUGGCAGCACGUUUACAUGAGGAUCACCCAUGUCA [Xerema]	56.6	123	–	192	–
AAUAAUAAGGCGGCCGCCACUAAACAUGAGGAUCACCCAUGUCUCGAGGGCUUGCGUUUGGGAAGUAGGACCGGGCCAAUAAUAA [Exclusion - Tryptophan B (Freestyle 6)]	12.6	18.8	20.4	16.4	17.9
ACGGUUGGUUCGUUACCUCAUAUCUCAGAAGGAGCGGGCAGUAGUCCAGGUAGGUCGCUGGGACAUGAGGAUCACCCAUGUCUUA [Aataer]	22.4	139	211	166	103
UAUAUAGAUGGACGUCAUAUAGAUGCAGAAGGAGCGUAGGAAACUACAGGUAGGUCGCUGAGGUACAUGAGGAUCACCCAUGUAG [SSArg A #19 Slice of Pi]	34.3	38	37.9	20.9	26.5
GGCCUUGCGGGCGCCCGCAAGGCCGCGGAUACCAGCGAGGUCCAUCGCCCUUGGCAGCCGAACAUGAGGAUCACCCAUGUCGGUU [Same State - Theophylline A Attempt #6 (HarryS)]	9.84	13.7	–	11.3	–
UGUAUGUGAUCUGAUACCAGUCCAACUGGUAAAACCUGAGGAUCACCCAGGUAAAAUUGGGACCCUUGGCAGCAGAUCGCAUACU	134	130	16.1	177	183
AGUACUCGAACGGAUACCAGCCGGACAUGAGGAUCACCCAUGUCCUACCAAUGUUCGGUUGGCCCUUGGCAGCCGUUCGUGUACA [Omei Theo B SS A v5]	99.5	404	–	599	–
AUCCACAGCCGAAGGAGCGCUAGAAGAUGACAUGAGGAUCACCCAUGUGUGUGAUGUGGCUAGCAGGUAGGUCGCGGAGUGGAUU [Exclusion - Arginine B (Freestyle 12)]	31.6	35.5	26.2	24.7	24.3
